Assay results published in doi:10.1101/738179, “Rad51 Interaction Analysis Reveals a Functional Interplay Among Recombination Auxiliary Factors” (bioRxiv, 2019).

B1: Rad51 (natural protein, S. pombe, UniProt P36601 1-365, looked up)
chain: MADTEVEMQVSAADTNNNENGQAQSNYEYDVNVQDEEDEAAAGPMPLQMLEGNGITASDIKKIHEAGYYTVESIAYTPKRQLLLIKGISEAKADKLLGEASKLVPMGFTTATEYHIRRSELITITTGSKQLDTLLQGGVETGSITELFGEFRTGKSQICHTLAVTCQLPIDMGGGEGKCLYIDTEGTFRPVRLLAVADRYGLNGEEVLDNVAYARAYNADHQLELLQQAANMMSESRFSLLVVDSCTALYRTDFSGRGELSARQMHLARFMRTLQRLADEFGIAVVITNQVVAQVDGISFNPDPKKPIGGNILAHSSTTRLSLRKGRGEQRICKIYDSPCLPESEAIFAINSDGVGDPKEIIAPV
notes: Rad51, RecA-family recombinase of S. pombe; Covalently attached to Affi-gel 15 in the pull-down; Multimer in solution by SEC; also called Affi-Rad51
B2: Swi5-Sfr1 (wild type, full-length Sfr1) (complex, S. pombe)
chain 1: MEKSQLESRVHLLEQQKEQLESSLQDALAKLKNRDAKQTVQKHIDLLHTYNEIRDIALGMIGKVAEHEKCTSVELFDRFGVNGSE
chain 2: MSQTINSELNENATSQCKEDLKVSLSESDLRDSQGQLGIENPPKCNNSGNHSDNLGFIEQSETVHPENEKALTPDLRDTKIHTSLPITTPFSKKRAREAKNILLKPFKSPLRQTASPQVADTNLKPSLAVTNLNSDETNTSSEPVTSPLRTTPNSIKRQKRLFKSPISNCLNPKSDPEITQLLSRRLKLEKEVRNLQEQLITAETARKVEAKNEDKDLQTLIQKWKNAAQQAAEVLFKPMAERIRLAGGVTQSFRIEEGENKGQIQEVRTEFTMSMFLNQFGVPVHLMSFDEENGDWKS

Assays:
[1] = target: B2; assay: pull-down; Rad51 covalently attached to Affi-gel 15 (2 µg protein/µL gel); Swi5-Sfr1 variant in Affi-gel buffer (25 mM HEPES-KOH pH 7.5, 150 mM NaCl, 3.5 mM MgCl2, 0.5 mM DTT, 0.05 µg/µL BSA, 10% glycerol, 0.05% igepal CA-630); 30 °C 30 min; Sfr1 detected by immunoblot; Affi-BSA as control; conditions: both partners purified
Rad51 = target: B1; assay: cell-based or functional assay

Row | Binder | binding result [1] | Rad51-dependent ATP turnover, fold increase at a Swi5-Sfr1:Rad51 ratio of 1:20 (0.25 µM Swi5-Sfr1, 5 µM Rad51) (Rad51)
1 | B1 | binds | 
2 | B2 |  | 1.85 fold
